The target in assay [1] is triple-helical collagen peptide GPC-(GPP)5-GPRGQOGVNleGFO-(GPP)5-GPC-NH2. Nature of the assay: ELISA; solid-phase binding assay: DS2-Fc added to 96-well plates coated with triple-helical collagen peptides at 10 μg/ml. Background: An ELISA detects its analyte on a solid surface through an enzyme-linked reagent.
The target of assay [2] is triple-helical collagen peptide Ac-GPOGPOGPOGPRGQOGVNleGFOGPOGPOG-NH2. Put plainly: crystal structure; complex formed at molar peptide:protein ratio ~1.5:1; hanging drop vapor diffusion at room temperature, 0.1 M PCB pH 7.0, 25% PEG1500; 1.6 Å, molecular replacement.
Assay [3] has the same target. Put plainly: SEC; analytical size exclusion chromatography, 24 ml Superdex 75, 20 mM MES, 100 mM NaCl pH 6.5; 16 nmol DS domain in PBS alone or mixed with varying amounts of collagen peptide (two-fold molar excess for the complex), incubated 30 min in 0.5 ml.

In assay [1], “DS2-Fc (Fc-tagged DS domain of DDR2) (Fc fusion)” gave a fold increase of binding against the methionine peptide of 10 fold.

On to “triple-helical collagen peptide Ac-GPOGPOGPOGPRGQOGVNleGFOGPOGPOG-NH2”, for which the stoichiometry N in assay [2] was found to be 3.

B1: DS domain of human DDR2 (His-tagged, residues 26-190) (domain or fragment)
chain: NPAICRYPLGMSGGQIPDEDITASSQWSESTAAKYGRLDSEEGDGAWCPEIPVEPDDLKEFLQIDLHTLHFITLVGTQGRHAGGHGIEFAPMYKINYSRDGTRWISWRNRHGKQVLDGNSNPYDIFLKDLEPPIVARFVRFIPVTDHSMNVCMRVELYGCVWLDG
In assay [3], B1 showed a stoichiometry N of 1.

As a reminder, the stoichiometry N is a count of units in the complex or per binding partner.

Values taken from paper PMC2807035.
